From the DeepSol protein solubility set come the findings set out here.

A short description of this data set: soluble on expression in E. coli; label from the status in PepcDB or PDB records.
With “GPGSMLRFTHRALTATPERFSVLGTTHPKPKRTGFGRNNKMRSKPSDNVAWYDKGPVEWLPRPVRLTYDHLDQLQQWMMRATLDGRTEEFNRIRDLHREWSQHPLMPVLGDVEPKFPLNLFKQNHRAKKRFLVRWHKANTPANWLWMPRGPTVVTPLHRTNPTQYPENWKQMVQRKSGTGTPS”, the “soluble on expression in E. coli” value is listed as “not soluble”. With “MGSDKIHHHHHHMNFQQCRYVEAIANTGSFSEAAKKLYVTQPNLSSSIKELENDLGVQLFIRSNTGARLTDDGYDFLKYAKRILGEADLLKKRYQDNYKKSFTISSHHYDFLAIPLLEIAEKFKKDFQHFHLIETTTKKILESVLNFESDLGILYLNDDNRHILERYFKQHDLAFTPLGDFPTRIFLRKDHPLAQQKVIEKVQLKDYKQVRFRQEISGLNFDEDTLDIPENQSVFYSNDRGTIMNILCGSDAYASGLGIVNSFIKDQIVLIPLKDSKMHTLGFVSNKRKQETDITQQFITAVKNSLRTYERGTQL” the entry was “not soluble”; with “MGSDKIHHHHHHMGHQEFMSQEEVDALLKGVTGETDTVDEQRDLSSVRPYNIATQERIVRGRMPGLEIINDRFARLLRIGIFNFMRRTAEISVSQVKVQKYSEFTRNLPIPTNLNLVHVKPLRGTSLFVFDPNLVFFVVDNLFGGDGRFHTRVEGRDFTATEQRIIGKLLNLVFEHYATAWKSVRPLQFEFVRSEMHTQFANVATPNEIVIVTQFSIEFGPTGGTLHICMPYSMIEPIRDVLSSPIQGEALEVDRRWVRVLSQQVQSAEVELSANLAEIPSTFEKILNLRAGDVLPLEIEDTITAKVDGVPVMECGYGIFNGQYALRVQKMISASDTMKEGGYE”, “not soluble”.

For the sequence “GPGSRGIDGRQVVRREIKWANMAADWNKTNTKMHAKLKERCRKGIPSRFRGVAWQLLMGSFHQLNSEENNGVYVALRDKKLADKETDVIISRDLARTFPTHVLFQDPGGVGQTFLRNILHAYAGCDPEVGYVQGMGFLVAALSTQMAEGGVLLGPA”, the “soluble on expression in E. coli” value is “not soluble”.

For the sequence “MTHDNKLQVEAIKRGTVIDAIPAQIGFKLLSLFKLTETDQRITIGLNLPSGEMGRKDLIKIENTFLSEDQVDQLALYAPQATVNRIDNYEVVGKSRPSLPERIDNVLVCPNSNCISHAEPVSSSFAVRKRANDIALKCKYCEKEFSHNVVLAN”, the “soluble on expression in E. coli” value is listed as “soluble”. “MIRMETYPHNFEEKVGFDEIRRLLIGHCHSPMGSDRVIQMHALARHNEVSRLLAETEEMQIILREEDLFPDLRLADVREALNRIRPAGTYLEERELQDVATALRTIEALIRFFHVGEEEEGKDTPYPHLQTLLSEVIVFPDLEKRISSLFDRFGKMKDNASPELMNIRRELSSIEKNISRTLQGILRLAQSEGWVDQGVQPSVRDGRLVIPVAPAHKRKVRGIVHDESGTGKTVFIEPAEIVEANNRIRELEAAERREIIRILIEVCDALRPHIHDLIDCYEWIGLFDFISAKARLCGEWNAIRPILSKKPEIRWEKAVHPLLLRSLRAHGRDVIPLDISLTAPDKRILVISGPNAGGKSVCLKTVGLLQYMLQSGLPIPMSPDSTAGIFGKLFIDIGDEQSIEDDLSTYSSHLRNMKHFARHTDKNTLLLIDEFGGGTEPQIGGAIAEALLHRFNEQEGFGVVTTHYQNLKAYAEETPGLVNGAMLYDRHEMRPLFRLSIGRPGSSFAIEIARKIGLPEEVIAEATDKVGTGYIDMDKYLQDIVRDKRYWETKRTNIRKEEKRLEGAAAEYESRLESIKKERKQILDEARQQASVMLSQSSAQIEKTIRDIKEAQAEREKTRRARQELNDFRETINKEEIEKEERINREIEKIKRRKKRKQEKAASRSAETPVQPKLQEVPQPPVIQVGDTVRIKGQTAIGSIIDMNDREATIALGMIKTTVPIDRLEPAKPVKERKSEPVSGASARMIIDRIHEKRLDFKQDIDLRGMRVNEAVQAVMYFIDDAIQLGIPRVRILHGTGTGALRTVIREYLATVNGVRHFADEHVQFGGAGITVVELG”: the “soluble on expression in E. coli” value was “not soluble”. With “NGVWVIGEQREGKINPVTIELIGEGRKLADQLGKELAVVIAGYEVEKEVKELLHYSVDKVYYINDPLLKDFTTDGYAISIANLIERKKPEVVLVGATSIGRDIAPRIAGKVGTGLTADCTKLEIDSTDNKLLQTRPAFGGNLMATIVCPKNRPQMSTVRPGVMAKAVRNESETGILEVVTPELTEKMIRTRLVEILPQEKKSVN” the entry was “soluble”; with “MIGGRDDYPESGFSLPFEPGPRRMQIKRGIRILGIDDSPFSRGDRESNLVGVLMRMDGYVEMMEKEKIQVDGDDVNRAIENLFLYTGRVARIIMMSGISFAGFNICDIDALYQRIRVPVISVFEQGGSVERMIAAIEKHLDDPEKVRILRSLKPVEIRNNGYIIMANLSGIDAQSAQEIITRNTIRGKFPEAIRLADLVGKILGR”, “not soluble”.

For “MGRRVLLSFLGLGDYEYCYYTYEGKTSTYTRFIQTAVYELFRNDEPMDVVVFATKEAQDRNGQDRKKGDKLLEGIGTAFSRIAPEANVKIVEIESGQDEQANWRLFDRIMDEIKEGDTIYFDITHSFRSIPFVALIVLNYARLVKKADIGAIIYGWFEVLGRPIDVEQMPEEQRVAPIVNLTSMAKLLDWTNGVDQFLRTGDASIIQALTAKENSEVFRNPSLSQAVKDEVKELRELTKRLDQTEKAIRTCRSLQIDEEVQKFHEQLGRVRSASAEAIKPLVPLLDVMEKKYAMFDDDPIMNSWKAVRWCLDHGLIQQALTMLEENAVTAVCRVLGLDLRNEKARGDVHSAIEILLRDIPKEEWRVRSVERVEQIIDFLSPYKGDLKRFSTLKERRNDINHAGARPQPLKAEKFWPDAEQSFRELGAFFERMSALAKSMQTVKGNG”, the “soluble on expression in E. coli” value is on record as “not soluble”. With “LSKVVIRRLPPTLTKEQLQEHLQPMPEHDYFEFFSNDTSLYPHMYARAYINFKNQEDIILFRDRFDGYVFLDNKGQEYPAIVEFAPFQKAA” the entry was “soluble”. With “MAKSSSLNVRVVEGRALPAKDVSGSSDPYCLVKVDDEVVARTATVWRSLGPFWGEEYTVHLPLDFHQLAFYVLDEDTVGHDDIIGKISLSREAITADPRGIDSWINLSRVDPDAEVQGEICLSVQMLEDGQGRCLRCHVLQARDLAPRDISGTSDPFARVFWGSQSLETSTIKKTRFPHWDEVLELREMPGAPSPLRVELWDWDMVGKNDFLGMVEFSPKTLQQKPPKGWFRLLPFPRAEEDSGGNLGALRVKVRLIEDRVLPSQCYQPLMELLMESVQGPAEEDTASPLALLEELTLGDCRQDLATKLVKLFLGRGLAGHFLDYLTRREVARTMDPNTLFRSNSLASKSMEQFMKLVGMPYLHEVLKPVISRVFEEKKYMELDPCKMDLGRTRRISFKGALSEEQMRETSLGLLTGYLGPIVDAIVGSVGRCPPAMRLAFKQLHRRVEERFPQAEHQQDVKYLAISGFLFLRFFAPAILTPKLFDLRDQHADPQTSRSLLLLAKAVQSIGNLGQQLGQGKELWMAPLHPFLLQCVSRVRDFLDRLVDVDGDEEAGVPARALFPPSAIVREGYLLKRKEEPAGLATRFAFKKRYVWLSGETLSFSKSPEWQMCHSIPVSHIRAVERVDEGAFQLPHVMQVVTQDGTGALHTTYLQCKNVNELNQWLSALRKASAPNPNKLAACHPGAFRSARWTCCLQAERSAAGCSRTHSAVTLGDWSDPLDPDAEAQTVYRQLLLGRDQLRLKLLEDSNMDTTLEADTGACPEVLARQRAATARLLEVLADLDRAHEEFQQQERGKAALGPLGP” the entry was “soluble”; with “MDEHFIKIHKWLYPVSWIYGAVVTVRNKLFDWGFLRSKSFGVPVICIGNLSVGGTGKTPHTEYLIKLLRDNYHVAVLSRGYKRHSRGYVLATPQSTARSIGDEPYQMHTKFPSVTLAVDENRCHGIEQLLSIKEPSIEVVLLDDAFQHRYVKPGLSILLTDYHRLFCDDTLLPAGRLRESVNGKNRAQIVIVTKCPQDIKPIDYNIITKRLNLYPYQQLYFSSFRYGNLQPVFPSANSEIDSTVNELPLSALTNTDILLVTGIASPAPILEELKMYTDQIDSLSFDDHHHFSHRDIQQIKERFGKLKGEHKLIVTTEKDATRLIHHPVLSEELKPFIYALPIEIEILQNQQDKFNQHIIGYVRENTRNSSFSERENAHQSLEHHHHHH”, “soluble”. With “MAGQVVVNDHLADKAGLQVPVEAEIRLKGEDIPFVSRGGLKLARALEEFGIDVADMTAIDVGASTGGFTDCLLQRGARKVYAVDVGYGQLAWKLRQDSRVVNLEKTNIRYLEPGALPETPGLAVIDASFISLDKVLPSTLRLIGEEGVIVALIKPQFEVGRGEVGKGGVVRDEEKHRRVIADVVALAEGLGLMVLGVTESPILGPKGNREFLIHLKKAVGETPPHNR” the entry was “not soluble”. With “MGSDKIHHHHHHMPEFRKDPIIKRWVIIATERAKRPHDFARTKVEEVREGFCPFDYGNEHTTPPEIFAFRPADTEPNTPGWWVRVVPNKFPAVDPNAPLRKYGRGMYDAAMGFGYHDVVVETPDHNSHLAVMDYKNVEEVIWAYKIRYEQLMKDERIKYILIFKNHGRDAGASLSHPHSQIIALPIMPKRVQEELDGSKEYYEYKERCPFCDIIDEEKRERERIVEENDHFIALEPFAARFPFETWILPKRHMNSFHLISEDEVGSLAKILKNVLYRIYAALDNPPYNLLIHTAPTSLEGKDYYHWHIEIFPRLTKVAGFEWGTGFYINTVPPEDAARYLREVSLEQV”, the “soluble on expression in E. coli” value is recorded as “not soluble”. With “MDRQGFVPAAYVKKLDSGTGKELVLALYDYQEKSPREVTMKKGDILTLLNSTNKDWWKVEVN” the entry was “soluble”; with “GPGSMLTRSLVCRASLQSRRRWEQRIVSVLSENKEEGVDAVAKRFQRVYKERRYTPVEEAFPPLAAAAAAPGLRSSAAKESVESVQQPANPLVLRVAFLGPQNAGKTSLVNSMALSNVGAVSNRYGSTKDWTKAVATVHETQLLLLDTPGIVPRDTQRVRRKFASGTAKAYDALFVSDLVVLALPVGVGFVEKEHKVVATEVVRRAAGRELPVVIAMTMMDKVQTPWHRELYFAMRTDLESLGLPTAATHEVSVKGGSGLVELKDCLCQYAKPGAWEHYRREATDLNPPQRVAELLRQTFMELLPHEIPHCMRHRVLGWTRKESGTTEVVVEAFFDRPAYMFTFYGKLEAICLRAQQVTERELAPQRFRFVFQAFIAPGGLSNS”, “not soluble”; with “MSLSGFDADAIDRTTAADLAEVGSDKWTRYPGCIGAFIAEMDYGLAPCIQQAIDSACDHCKLGYIPEPWKRRVAEACAGWQKSHYGWDVDPDIIRVVPDVLEAYEIFLRELVGAGNAVVVPTPAYMPFLSVPKLYDVDVIEIEMLQGTDETTGEREWLFDFNAIERAFAAGCHAFVLCNPHNPIGKVLTLAEEQRLCELAERYDVRIFNDEIHAPFVFEGRHIPYPTISKAAARQSMTATSASKSFNIPGTKCAQVLLTNPADREMWAERAEWSEHQTATIGAIATTTAYNEGDPWFQDALSYVRRNLGLFDKQMRTRFSGVGYIRPRGTYIAWLDFGPLGIDDPAAYFLEKAKVALTDGRSCGRAGAGCVRVNMAMPYPLLVDCLNRMHDALQADGEGHHHHHH”, “soluble”.

For “MSHTAEIPMVPGSESPLELKPLKAVDPKAVYHRRAQRLLSLAKDSPLADYFELCRRVVAIQARLAAEADFGQLLAWGKDEAIPLSHLGSEADSYWQGLLQQLLSDLLPQVGEDLARVLRLLMQQSPEQLTSWGASLRQGHMSAVPARFSLFIWAAMGVYWSHWAPMVIKRIDQRKVAQQNLCPICGSHPVASVIVDQPRAGLRYLHCSLCESEWHYIRAHCTSCGQDKGTTLWSFDDTQAQVRIESCDECHGYTKMMFVEKSPLMDVVADDLATLMLDSELNAKGFGATTVNPLLLAHETEQ”, the “soluble on expression in E. coli” value is “not soluble”.

As for “MGEIESYCNKELGPLPTKAPTLSKNVLDLFSLKGKVASVTGSSGGIGWAVAEAYAQAGADVAIWYNSHPADEKAEHLQKTYGVHSKAYKCNISDPKSVEETISQQEKDFGTIDVFVANAGVTWTQGPEIDVDNYDSWNKIISVDLNGVYYCSHNIGKIFKKNGKGSLIITSSISGKIVNIPQLQAPYNTAKAACTHLAKSLAIEWAPFARVNTISPGYIDTDITDFASKDMKAKWWQLTPLGREGLTQELVGGYLYLASNASTFTTGSDVVIDGGYTCP”, the “soluble on expression in E. coli” value was “soluble”.
